Tested on: MS2 coat protein
Experiment: apparent KD of MS2 coat protein; higher = weaker reporter binding
Settings: Eterna round: R107
Summary of the method: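 On-chip transcription from Illumina sequencing clusters produced the designed RNA switches. These were titrated with SNAP-549-labelled MS2 coat protein (twofold steps, 0.7 or 1.5 nM to 3 µM) in 100 mM Tris-HCl pH 7.5, 80 mM KCl, 4 mM MgCl2, with or without constant ligand. The apparent KD given is the per-design median of normalised cluster binding-curve fits.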

[1] = input ligand: theophylline 20 uM
[2] = input ligand: theophylline 2 mM
[3] = input ligand: tryptophan 2.4 mM

Row | Sequence | apparent KD of MS2 coat protein (input ligand: arginine 13.2 mM) [nM] | apparent KD of MS2 coat protein (input ligand: none) [nM] | apparent KD of MS2 coat protein [1] [nM] | apparent KD of MS2 coat protein [2] [nM] | apparent KD of MS2 coat protein [3] [nM]
1 | GCGUCGGUCGGAAGGAGCGACAUGAGGAUCACCCAUGUCUCCCGUUAUGGGAGUUCCUUAGGUCAGGUAGGUCGCCGACGGACGC [#1 Exclusion - Arginine B Attempt #19 (Inspired by Omei)] | 63.8 | 170 | 190 | 216 | 196
2 | AGUACAUGAGGAUCACCCAUGUAUCGGUACCGAGGACCGGUACGGCCGCCACUCGCAGGACAUGAGGAUCACCCAUGUGCCGCCG [SSTA DOUBLE!!! :-D #9] | 13.9 |  | 22.6 | 22.4 | 
3 | CCUAGCACACAUGAUACCAGCGACAUGAGGAUCACCCAUGUACGGCGUGUAUCGCAAGGUUGCCCUUGGCAGCAUGAUAGUGCUG [Xeerdi] | 12.7 |  | 24.7 |  | 14.2
4 | UGUAACAUGAGGAUCACCCAUGUGAGUGAUACCAGACUAGUGUUGGUCCCUUGGCAGCACGCUGGACGAAUGUGUAGUCUAUGCG [Same State - Theophylline A (Freestyle 18)] | 59.5 |  | 107 |  | 77.4
5 | AGGUACAGCAGGUGAUUCUGGCUGUACCAACGAGGACCGGUACGGCCGCCACUCGAAUAAACAUGAGGAUCACCCAUGUACAAAU [T''-M-T'-T-MS2 - Design 7] | 20.3 |  | 41.3 | 31.9 | 
6 | UUAUAAGCACCUGAUACCAGUAUGAACCCGUACAUGAGGAUCACCCAUGUUAAUUUCUAUUACCCUUGGCAGCAGCCUUUUUCCU [theeternabot_sameState_MS2_Theo_B_2] | 18.7 |  | 28.8 |  | 21.7
7 | UACUUGCUGACGGCCGCCACUAGAACAUGAGGAUCACCCAUGUAUGGCGGCCGAAUCCUCAUGACUAGGACCGGGUCAGCAAGAU [(Trp1)-(Ms2)-(T)'-(M)'-(Trp2)_Design2] | 8.18 | 8.09 | 12.5 | 8.75 | 8.22
8 | ACUAGUUGUGCAGAUACCAGACAUGAGGAUCACCCAUGUUUGGGAUGUUCGCAUCUUCCUGUCCCUUGGCAGCUGUACAUCUAGA [Omei Theo B Exc v4] | 60.9 |  | 145 |  | 86.2
9 | UUAUUUAUAAUUGAUACCAGUUUAAUGGCCGCAAAUCCUGACAUGAGGAUCACCCAUGUAAGCCCUUGGCAGCGGUUAUGGGUUU [XTheo B #25] | 22.8 |  | 26.4 |  | 22.1
10 | UGUAUGUGAUUUGAUACCAGACCAGCUGGUGUUAGAUGAGGAUCACCCAUCUAGGUUUGGGUCCCUUGGCAGCAAAUCGCAUACU [SS Theo B #24 Ms13] | 18 | 18 | 22.1 | 11.4 | 18
11 | GUGAGGUUUGAUGAUACCAGAUGUGGUGGGAACAUGAGGAUCACCCAUGUUGUGAAACAGGUCCCUUGGCAGCAUGAGAGAGCUU [TheoB-ms2@32] | 30.5 |  | 89.3 |  | 52.7
12 | GAUGAACUAUAUGAUACCAGACAACAUGAGGAUCACCCAUGUGAUAGUCGUCCUCUGCCUGUCCCUUGGCAGCGUAUAGUUUAUC [XTheo B #19] | 30.7 |  | 74.7 |  | 21.2
13 | GGGUACAUCGCGGCCGCCACUUUUGUAAAUACAUGAGGAUCACCCAUGUCGAUGGAGACAUCGGUGAGGACCGGGUGAUGUACCG | 196 | 624 | 523 | 721 | 295
14 | CGGCCCUCACUUGAGGAUCACCCAAGUGAUACCAGCCUGGAAACAGGCCCUUGGCAGCACUAGGUCAUCAAAGAUGACCAAGCCG [TheoAX 28 #OpenEnded #AlternativeMS2] | 14.8 | 12.8 | 26 | 146 | 13.4
15 | ACGACGCAUAGUGAUACCAGCACAACAUGAGGAUCACCCAUGUCACUUAUGUAGUAAUAAUGCCCUUGGCAGCACUAUGCGUCAG [SSTheo B #1] | 40.7 |  | 66.3 |  | 52.6
16 | UAUCCACAUGAGGAUCACCCAUGUUAGGAAGGAGCGGUGAAUGAACCAGGUAGGUCGCCUAGGUGAGGACCAUCUAUGGAUUCGU [Exclusion - Arginine A (Freestyle 12)] | 12.8 | 13.3 | 19.8 | 14.6 | 13.1
17 | AGAUGAGUCACGGCCGCCACUCACUACAGGUUCACCCUUGGUUAACAUGAGGAUCACCCAUGUGGGAGGACCGGGUGAUGAGCAU [XTryp B #4] | 18.5 |  | 32.7 | 25.6 | 
18 | GAUACCAUGAUCCUCCUGGUAUCGGCUGAUACCAGCCAGCUGACUGGCCCUUGGCAGCAGCAUACAUGAGGAUCACCCAUGUUAA [(T)''-(M)'-(T)'-(Theo)-(Ms2)_Design4] | 35.4 |  | 163 |  | 61
19 | ACAUGAGGAUCACCCAUGUUAUUUACCGAAGGAGCGGGUAUAUACCCAGGUAGGUCGCGGACAACAUGAGGAUCACCCACAUGAG [AstrosSSArgA#21] | 45.5 | 28.5 | 53.4 | 71.4 | 27.8
20 | AUCUCAUAGAGUGAUACCAGACUACAUGAGGAUCACCCAUGUUACAUUUAAAUAUCAUUUGUCCCUUGGCAGCACAUUAAGUACA [JR_Nu_ExcTheophyB_Sub019] | 25.6 |  | 33.2 |  | 23.4
21 | UUCAGCUAGUCGGCCGCCACUACAAGAGGAUCACCCUUGUAGGUCCACACUGCUUCGGCAGUGAGUAGGACCGGGACUAGCUGAG | 10.9 | 11.3 | 13.1 | 13.7 | 17.7
22 | UAACGGCACUGAAGGAGCGAGUUGACAAACAUGAGGAUCACCCAUGUUAUGGGUUGUUAAUCUCAGGUAGGUCGCAGUUGUCGUA [Same State Arginine B GF 20] | 129 | 348 | 387 | 511 | 365
23 | GGGUCCGUCGGAAGGAGCGACAUGAGGAUCACCCAUGUCUCCCGUUAUGGGAGUUCUUUAGGUCAGGUAGGUCGCCGGCGGGUCC [#1 Exclusion - Arginine B Attempt #13 (Inspired by Omei)] | 65 | 141 | 196 | 164 | 119
24 | CUUGUCGUAACUGAUACCAGUGUACUGACAUGAGGAUCACCCAUGUUGGGUUUUGUUGUACACCCUUGGCAGCAGAAUCGAUAAG [AstrosExyTheB#9] | 68.8 |  | 95.3 |  | 71.3
25 | GUAUACAUGAGGAUCACCCAUGUACCAGAAGGAGCGCUGGAAACAGCAGGUAGGUCGCUGGUAGGUCCUCUAUCUAGACGUUCUA [EAA NP+V+V2 #5] | 28.1 | 176 | 214 | 195 | 79
26 | ACAUGAGGAUCACCCAUGUGAAGCAGGGUACGAGGACCGGUACGGCCGCCACUCGAGCAUUAUAACGAGUGAAUGGCAACGAUGU [whbob_Ex_trypto A_2s16] | 11.7 | 12.4 | 19 | 17.4 | 12.8
27 | AAACAUGAGGAUCACCCAUGUAAAGUUGAAGGAGCGACCAGAGGGUCAGGUAGGUCGCAACACAUGAGGAUCACCCAUGUAUCGA [DOUBLE!!! :-D #5] | 41.3 | 96.5 | 88.5 | 91.6 | 72.7
28 | ACAUGAGGAUCACCCAUGUACAUCACCCGACGAGGACCGGUACGGCCGCCACUCGGGUAUAUAUAUACAUCGGGUGGUUUUGCAU [a15jan] | 40.7 |  | 88.4 | 40 | 
29 | CGCAACCCACAUGAGGAUCACCCAUGUGAAGGAGCGCCGAAUAAGGCAGGUAGGUCGCGCAUGAAUAAAUCAUGUAGGAAGCGAA [XArg-A 6 V1&2] | 20.6 | 32.2 | 32.6 | 33.4 | 29.1

Source: the supplement of paper PMC9170038
